Measured values: article PMC5072837
Values joined by “and” are separate entries in the source; they are usually repeats but may differ in a detail not shown here. Identical values can stand only once.

Columns and labels:
[1] = target: FliD lacking the C-terminal coiled-coil domain (FliD_(1–405)) from the P. aeruginosa PAO1 strain (Pseudomonas aeruginosa PAO1) (UniProt Q9K3C5); test: cross-linking; about 0.4 mg/mL protein, 20 mM EDC and 20 mM NHS, various time points; silver-stained SDS-PAGE
[2] = target: FliD lacking the N-terminal coiled-coil domain (FliD_(78–474)) from the P. aeruginosa PAO1 strain (Pseudomonas aeruginosa PAO1) (UniProt Q9K3C5); test: as above
[3] = target: FliD_(1–474(I167C/D253C)) produced by Pseudomonas (complementation strain ΔfliD/fliD_(1–474(I167C/D253C))) (Pseudomonas aeruginosa PAO1) (UniProt Q9K3C5); test: Western blot after non-reducing SDS-PAGE; flagella sheared off live bacteria, supernatant concentrated; detected with anti-FliD scFv-Fc SH1579-B7
[4] = target: FliD_(78–405) from the P. aeruginosa PAO1 strain, made as a GST fusion and cleaved (Pseudomonas aeruginosa PAO1) (UniProt Q9K3C5); test: AUC; sedimentation velocity, 20°C, 20 mM sodium citrate, 80 mM NaCl, pH 5.0; 325 μM FliD78–405, 124 μM FliD78–273, 168 μM FliD1–474
[5] = target: FliD_(78–405) from the P. aeruginosa PAO1 strain, made as a GST fusion and cleaved (Pseudomonas aeruginosa PAO1) (UniProt Q9K3C5); test: AUC; sedimentation velocity, 20°C, 30 mM Tris, 80 mM NaCl, pH 8.0; 295 μM FliD78–405, 124 μM FliD78–273, 168 μM FliD1–474
[6] = target: FliD_(78–405) from the P. aeruginosa PAO1 strain, made as a GST fusion and cleaved (Pseudomonas aeruginosa PAO1) (UniProt Q9K3C5); test: SAXS; 30 mM Tris pH 8.0, 80 mM NaCl; three concentrations of each protein; envelopes by DAMMIF with superimposed crystal structures
[7] = target: FliD_(78–405) from the P. aeruginosa PAO1 strain, made as a GST fusion and cleaved (Pseudomonas aeruginosa PAO1) (UniProt Q9K3C5); test: cross-linking; about 0.4 mg/mL protein, 20 mM EDC and 20 mM NHS, various time points; silver-stained SDS-PAGE
[8] = target: FliD_(78–405) from the P. aeruginosa PAO1 strain, made as a GST fusion and cleaved (Pseudomonas aeruginosa PAO1) (UniProt Q9K3C5); test: negative stain EM with class averaging; 2% uranyl acetate, about 3500 particles, class averages in EMAN2
[9] = target: FliD_(78–405) from the P. aeruginosa PAO1 strain, with N-terminal His6-tag (crystallized construct) (Pseudomonas aeruginosa PAO1) (UniProt Q9K3C5); test: crystal structure; His6-FliD78–405 crystals grown in 0.8 M NaK Tartrate, 0.1 M Hepes pH 7.5; 2.2 Å; P6 space group
[10] = target: full-length FliD_(1–474) from the P. aeruginosa PAO1 strain (Pseudomonas aeruginosa PAO1) (UniProt Q9K3C5); test: AUC; sedimentation velocity, 20°C, 20 mM sodium citrate, 80 mM NaCl, pH 5.0; 325 μM FliD78–405, 124 μM FliD78–273, 168 μM FliD1–474
[11] = target: full-length FliD_(1–474) from the P. aeruginosa PAO1 strain (Pseudomonas aeruginosa PAO1) (UniProt Q9K3C5); test: AUC; sedimentation velocity, 20°C, 30 mM Tris, 80 mM NaCl, pH 8.0; 295 μM FliD78–405, 124 μM FliD78–273, 168 μM FliD1–474
[12] = target: full-length FliD_(1–474) from the P. aeruginosa PAO1 strain (Pseudomonas aeruginosa PAO1) (UniProt Q9K3C5); test: cross-linking; about 0.4 mg/mL protein, 20 mM EDC and 20 mM NHS, various time points; silver-stained SDS-PAGE
[13] = target: full-length FliD_(1–474) from the P. aeruginosa PAO1 strain (Pseudomonas aeruginosa PAO1) (UniProt Q9K3C5); test: AUC; sedimentation velocity, 4 μM FliD1–474 in 30 mM Tris, 80 mM NaCl, pH 8.0
[14] = target: head domain-only FliD (FliD_(78–273)) from the P. aeruginosa PAO1 strain (Pseudomonas aeruginosa PAO1) (UniProt Q9K3C5); test: AUC; sedimentation velocity, 20°C, 20 mM sodium citrate, 80 mM NaCl, pH 5.0; 325 μM FliD78–405, 124 μM FliD78–273, 168 μM FliD1–474
[15] = target: head domain-only FliD (FliD_(78–273)) from the P. aeruginosa PAO1 strain (Pseudomonas aeruginosa PAO1) (UniProt Q9K3C5); test: SAXS; 30 mM Tris pH 8.0, 80 mM NaCl; three concentrations of each protein; envelopes by DAMMIF with superimposed crystal structures
[16] = target: head domain-only FliD (FliD_(78–273)) from the P. aeruginosa PAO1 strain (Pseudomonas aeruginosa PAO1) (UniProt Q9K3C5); test: cross-linking; about 0.4 mg/mL protein, 20 mM EDC and 20 mM NHS, various time points; silver-stained SDS-PAGE
[17] = target: stable hexameric full-length FliD mutant FliD_(1–474(I167C/D253C)), purified recombinant protein (Pseudomonas aeruginosa PAO1) (UniProt Q9K3C5); test: SAXS; 30 mM Tris pH 8.0, 80 mM NaCl; three concentrations of each protein; envelopes by DAMMIF with superimposed crystal structures
[18] = target: stable hexameric full-length FliD mutant FliD_(1–474(I167C/D253C)), purified recombinant protein (Pseudomonas aeruginosa PAO1) (UniProt Q9K3C5); test: SDS-PAGE under non-reducing conditions; purified FliD1–474(I167C/D253C), reducing against non-reducing conditions

“FliD lacking the C-terminal coiled-coil domain (FliD_(1–405)) from the P. aeruginosa PAO1 strain (from UniProt Q9K3C5 1-405) (domain or fragment)” showed a stoichiometry N [1] of 2.
“FliD lacking the N-terminal coiled-coil domain (FliD_(78–474)) from the P. aeruginosa PAO1 strain (from UniProt Q9K3C5 78-474) (domain or fragment)” gave a stoichiometry N [2] of 2.
With “FliD_(1–474(I167C/D253C)) produced by Pseudomonas (complementation strain ΔfliD/fliD_(1–474(I167C/D253C))) (from UniProt Q9K3C5 1-474) (natural protein)” the stoichiometry N [3] was 6.
“FliD_(78–405) from the P. aeruginosa PAO1 strain, made as a GST fusion and cleaved (from UniProt Q9K3C5 78-405) (domain or fragment)” gave a stoichiometry N [4] of 12, a stoichiometry N [5] of 12 and a stoichiometry N [6] of 12. It also gave a stoichiometry N [7] of less than 12 and a stoichiometry N [8] of 6.
With “FliD_(78–405) from the P. aeruginosa PAO1 strain, with N-terminal His6-tag (crystallized construct) (from UniProt Q9K3C5 78-405) (domain or fragment)” the stoichiometry N [9] was 6 and 12.
In the case of “full-length FliD_(1–474) from the P. aeruginosa PAO1 strain (from UniProt Q9K3C5 1-474) (natural protein)”, the stoichiometry N [10] is reported as 4 and 6, the stoichiometry N [11] is reported as 4 and 6 and the stoichiometry N [12] is reported as less than 6. For the same substance, the stoichiometry N [13] was 2.
In the case of “head domain-only FliD (FliD_(78–273)) from the P. aeruginosa PAO1 strain (from UniProt Q9K3C5 78-273) (domain or fragment)”, the stoichiometry N [14] is reported as 2, the stoichiometry N [15] is reported as 2 and the stoichiometry N [16] is reported as 2.
With “stable hexameric full-length FliD mutant FliD_(1–474(I167C/D253C)), purified recombinant protein (from UniProt Q9K3C5 1-474) (natural protein)” the stoichiometry N [17] was 6 and the stoichiometry N [18] was 6.
